Results: the supplement of paper PMC10567573

B1: RTN2 (parent)
chain: SERPLEDLRLRLDHLGWVARGTGS
B2: FAM50A (parent)
chain: KKREKQREQMEQMKQRIAEENIMK

Variants of: B1
Assay: protein stability index of a GFP-peptide fusion (GPS, HEK-293T) (PSI 1-6); higher = more stable
Conditions: c terminus: a fixed tail appended
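Further: lentivirally expressed fusions sorted by FACS into six bins by GFP to DsRed ratio, PSI derived from sequencing read proportions per bin multiplied by bin number.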

| Variant | protein stability index |
| --- | --- |
| R11Q | 2.9 |
| R11T | 2.28 |
| R11W | 1.4 |
| R11Y | 2.7 |
| L12A | 2.97 |
| L12I | 2.02 |
| L12K | 3.13 |
| L12P | 2.47 |
| L12R | 2.16 |
| L12T | 3.51 |
| L12W | 2.38 |
| L12Y | 3.11 |
| D13C | 2.43 |
| D13F | 1.07 |
| D13G | 2.87 |
| D13H | 1.49 |
| D13S | 3.31 |
| D13T | 2.34 |
| D13V | 2.88 |
| D13Y | 2.07 |
| H14E | 2.61 |
| H14F | 1.51 |
| H14I | 1.99 |
| H14L | 1.93 |

| Variant | protein stability index |
| --- | --- |
| H14M | 2.47 |
| H14P | 2.54 |
| H14Q | 1.73 |
| H14R | 2.36 |
| H14T | 1.99 |
| H14W | 1.92 |
| L15A | 2.88 |
| L15C | 2.15 |
| L15E | 2.25 |
| L15F | 2.8 |
| L15G | 2.97 |
| L15I | 2.28 |
| L15M | 1.89 |
| L15Q | 2.1 |
| L15T | 2.26 |
| L15W | 3.5 |
| L15Y | 2.59 |
| G16A | 2.58 |
| G16E | 3.03 |
| G16F | 1.98 |
| G16I | 1.75 |
| G16P | 2.1 |
| G16Q | 3.01 |
| G16V | 1.55 |

| Variant | protein stability index |
| --- | --- |
| G16W | 1.81 |
| G16Y | 2.9 |
| W17A | 4.49 |
| W17E | 4.11 |
| W17G | 4.08 |
| W17H | 3.9 |
| W17M | 3.49 |
| W17N | 4.65 |
| W17Q | 4.42 |
| W17Y | 3.48 |
| V18D | 4.31 |
| V18E | 4.85 |
| V18H | 3.31 |
| V18I | 3.5 |
| V18K | 3.79 |
| V18M | 3.73 |
| V18N | 3.81 |
| V18P | 3.35 |
| V18Q | 3.02 |
| V18R | 4.14 |
| V18T | 2.86 |
| V18W | 2.8 |
| V18Y | 2.67 |
| A19C | 2.58 |

| Variant | protein stability index |
| --- | --- |
| A19D | 3.31 |
| A19E | 2.96 |
| A19G | 3.39 |
| A19H | 2.9 |
| A19K | 3.34 |
| A19L | 1.97 |
| A19N | 3.34 |
| A19P | 3.78 |
| A19T | 3.5 |
| A19W | 2.3 |
| R20C | 1.86 |
| R20E | 4.02 |
| R20F | 2.36 |
| R20H | 2.77 |
| R20K | 3.19 |
| R20L | 1.85 |
| R20M | 3.12 |
| R20N | 3.55 |
| R20P | 3.31 |
| R20Q | 3.32 |
| R20S | 4.23 |
| R20T | 3.14 |
| R20Y | 2.34 |
| G21C | 1.6 |

| Variant | protein stability index |
| --- | --- |
| G21E | 2.05 |
| G21I | 1.61 |
| G21K | 3.71 |
| G21M | 1.96 |
| G21N | 2.83 |
| G21P | 2.33 |
| G21Q | 2.78 |
| G21S | 2.68 |
| G21T | 2.08 |
| G21V | 2.09 |
| G21W | 1.68 |
| G21Y | 2.42 |
| T22C | 2.75 |
| T22F | 1.3 |
| T22G | 2.23 |
| T22H | 2.49 |
| T22I | 2.48 |
| T22L | 2.11 |
| T22M | 2 |
| T22N | 3.95 |
| T22R | 3.6 |
| T22W | 3.11 |
| T22Y | 2.79 |
| G23A | 3.6 |

| Variant | protein stability index |
| --- | --- |
| G23C | 2.4 |
| G23E | 3.99 |
| G23F | 2.52 |
| G23H | 2.6 |
| G23I | 3.35 |
| G23K | 3.55 |
| G23L | 2.44 |
| G23M | 1.87 |
| G23N | 2.98 |
| G23P | 3.34 |
| G23S | 2.61 |
| G23T | 3.04 |
| S24D | 2.59 |
| S24E | 4.04 |
| S24H | 2.03 |
| S24M | 1.76 |
| S24N | 3.26 |
| S24Q | 2.61 |
| S24R | 2.36 |
| S24T | 2.71 |
| S24V | 3.15 |
| S24W | 2.11 |
| S24Y | 2.12 |

Variants of: B2
Assay: as above
Conditions: c terminus: a fixed tail appended

| Variant | protein stability index |
| --- | --- |
| K1A | 4.71 |
| K1C | 4.67 |
| K1D | 4.87 |
| K1E | 5.1 |
| K1F | 4.22 |
| K1G | 4.9 |
| K1H | 4.95 |
| K1I | 4.98 |
| K1L | 4.62 |
| K1M | 4.67 |
| K1N | 5.42 |
| K1P | 5.52 |
| K1Q | 5.15 |
| K1R | 4.48 |
| K1S | 5.14 |
| K1T | 5.07 |
| K1V | 4.71 |
| K1W | 4.46 |
| K1Y | 4.95 |
| K2A | 4.57 |
| K2C | 4.76 |
| K2D | 4.34 |
| K2E | 5.04 |
| K2F | 4.45 |

| Variant | protein stability index |
| --- | --- |
| K2G | 4.55 |
| K2H | 4.98 |
| K2I | 4.63 |
| K2L | 3.67 |
| K2M | 4.64 |
| K2N | 4.94 |
| K2P | 5.22 |
| K2Q | 4.75 |
| K2R | 5.03 |
| K2S | 5.01 |
| K2T | 5.07 |
| K2V | 4.52 |
| K2W | 4.58 |
| K2Y | 4.22 |
| R3A | 5.17 |
| R3C | 4.91 |
| R3D | 5.11 |
| R3E | 5.29 |
| R3F | 4.61 |
| R3G | 5.18 |
| R3H | 4.65 |
| R3I | 5.16 |
| R3K | 5.06 |
| R3L | 4.93 |

| Variant | protein stability index |
| --- | --- |
| R3M | 5.04 |
| R3N | 5.08 |
| R3P | 5.26 |
| R3Q | 5.48 |
| R3S | 4.78 |
| R3T | 5.2 |
| R3V | 5.21 |
| R3W | 4.25 |
| R3Y | 4.04 |
| E4A | 5.04 |
| E4C | 4.42 |
| E4D | 5.21 |
| E4F | 4.39 |
| E4G | 4.71 |
| E4H | 4.38 |
| E4I | 4.53 |
| E4K | 4.28 |
| E4L | 4.21 |
| E4M | 4.5 |
| E4N | 4.37 |
| E4P | 4.42 |
| E4Q | 4.79 |
| E4R | 4.32 |
| E4S | 4.47 |

| Variant | protein stability index |
| --- | --- |
| E4T | 4.09 |
| E4V | 4.49 |
| E4W | 3.96 |
| E4Y | 4.27 |
| K5A | 4.38 |
| K5C | 5.05 |
| K5D | 4.75 |
| K5E | 5.26 |
| K5F | 4.8 |
| K5G | 4.55 |
| K5H | 5.12 |
| K5I | 4.76 |
| K5L | 4.68 |
| K5M | 4.95 |
| K5N | 5.25 |
| K5P | 5.34 |
| K5Q | 4.39 |
| K5R | 4.62 |
| K5S | 4.92 |
| K5T | 5.16 |
| K5V | 4.96 |
| K5W | 4.46 |
| K5Y | 4.11 |
| Q6A | 4.48 |

| Variant | protein stability index |
| --- | --- |
| Q6C | 4.17 |
| Q6D | 5.06 |
| Q6E | 4.81 |
| Q6F | 4.13 |
| Q6G | 4.62 |
| Q6H | 4.7 |
| Q6I | 4.67 |
| Q6K | 4.67 |
| Q6L | 4.13 |
| Q6M | 4.62 |
| Q6N | 5.3 |
| Q6P | 4.57 |
| Q6S | 4.96 |
| Q6T | 4.9 |
| Q6V | 4.49 |
| Q6W | 3.96 |
| Q6Y | 4.14 |
| R7A | 4.91 |
| R7C | 4.71 |
| R7D | 5.39 |
| R7E | 5.81 |
| R7F | 4.52 |
| R7G | 5.21 |
| R7H | 5.08 |

| Variant | protein stability index |
| --- | --- |
| R7I | 4.96 |
| R7K | 4.81 |
| R7L | 4.95 |
| R7M | 4.52 |
| R7N | 4.93 |
| R7P | 4.7 |
| R7Q | 5.25 |
| R7S | 5.51 |
| R7T | 4.84 |
| R7V | 4.98 |
| R7W | 4.13 |
| R7Y | 4.76 |
| E8A | 4.96 |
| E8C | 4.15 |
| E8D | 4.63 |
| E8F | 4.29 |
| E8G | 4.85 |
| E8H | 3.74 |
| E8I | 4.51 |
| E8K | 4.48 |
| E8L | 4.57 |
| E8M | 4.58 |
| E8N | 4.44 |
| E8P | 4.89 |

| Variant | protein stability index |
| --- | --- |
| E8Q | 4.82 |
| E8R | 4.71 |
| E8S | 4.41 |
| E8T | 4.31 |
| E8V | 4.37 |
| E8W | 3.68 |
| E8Y | 4.23 |
| Q9A | 4.86 |
| Q9C | 4.73 |
| Q9D | 4.96 |
| Q9E | 5.18 |
| Q9F | 4.16 |
| Q9G | 4.75 |
| Q9H | 4.68 |
| Q9I | 4.01 |
| Q9K | 4.93 |
| Q9L | 4.92 |
| Q9M | 4.4 |
| Q9N | 4.8 |
| Q9P | 4.89 |
| Q9R | 4.56 |
| Q9S | 4.74 |
| Q9T | 4.72 |
| Q9V | 4.67 |

| Variant | protein stability index |
| --- | --- |
| Q9W | 4.13 |
| Q9Y | 4.51 |
| M10A | 4.92 |
| M10C | 4.86 |
| M10D | 4.81 |
| M10E | 5.14 |
| M10F | 4.15 |
| M10G | 5.19 |
| M10H | 5.16 |
| M10I | 4.7 |
| M10K | 4.71 |
| M10L | 4.07 |
| M10N | 4.9 |
| M10P | 5.15 |
| M10Q | 4.86 |
| M10R | 5.14 |
| M10S | 4.89 |
| M10T | 4.69 |
| M10V | 4.37 |
| M10W | 4.7 |
| M10Y | 4.61 |
| E11C | 4.13 |
| E11D | 5.03 |
